Results published in the supplement of paper PMC10065799, “High-throughput profiling of sequence recognition by tyrosine kinases and SH2 domains using bacterial peptide display” (eLife, 2023).

Legend:
[1] = target: c-Src SH2; experiment: SH2 binding enrichment of the phosphorylated peptide, bacterial display (enrichment ratio); higher = better substrate or ligand; peptides without Tyr show the background
[2] = target: SHP2-C SH2; experiment: as above
[3] = target: Grb2 SH2 (UniProt P62993); experiment: as above
[4] = target: Jak2 (UniProt O60674); experiment: phosphorylation enrichment, bacterial display (enrichment ratio); higher = better substrate or ligand; peptides without Tyr show the background
[5] = target: EPHB1 (UniProt P54762); experiment: as above
[6] = target: Fyn (UniProt P06241); experiment: as above
[7] = target: Fes (UniProt P07332); experiment: as above
[8] = system: Fer (mouse); experiment: as above
[9] = target: EPHB2 (UniProt P29323); experiment: as above
[10] = system: AncSZ; experiment: as above
[11] = target: Hck (UniProt P08631); experiment: as above
[12] = target: FGFR1 (UniProt P11362); experiment: as above
[13] = system: c-Src; experiment: as above
[14] = target: FGFR3 (UniProt P22607); experiment: as above
[15] = target: MERTK (UniProt Q12866); experiment: as above
[16] = system: c-Abl (mouse); experiment: as above
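Wherever SH2 binding enrichment of the phosphorylated peptide, bacterial display is given: peptide library displayed on the E. coli surface as eCPX fusions, selected cells deep-sequenced, score is each peptide's frequency after selection divided by its frequency in the input.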
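Wherever phosphorylation enrichment, bacterial display is given: 11-residue human phosphosite peptides and single-mutation variants displayed on the E. coli surface, counted by deep sequencing, each peptide's frequency after selection divided by its frequency in the unselected input library; frequency after pTyr selection over input frequency; kinase dosed for 20-30% of maximal phosphorylation in three min.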

EPHB1, sequence (P54762 whole entry, looked up): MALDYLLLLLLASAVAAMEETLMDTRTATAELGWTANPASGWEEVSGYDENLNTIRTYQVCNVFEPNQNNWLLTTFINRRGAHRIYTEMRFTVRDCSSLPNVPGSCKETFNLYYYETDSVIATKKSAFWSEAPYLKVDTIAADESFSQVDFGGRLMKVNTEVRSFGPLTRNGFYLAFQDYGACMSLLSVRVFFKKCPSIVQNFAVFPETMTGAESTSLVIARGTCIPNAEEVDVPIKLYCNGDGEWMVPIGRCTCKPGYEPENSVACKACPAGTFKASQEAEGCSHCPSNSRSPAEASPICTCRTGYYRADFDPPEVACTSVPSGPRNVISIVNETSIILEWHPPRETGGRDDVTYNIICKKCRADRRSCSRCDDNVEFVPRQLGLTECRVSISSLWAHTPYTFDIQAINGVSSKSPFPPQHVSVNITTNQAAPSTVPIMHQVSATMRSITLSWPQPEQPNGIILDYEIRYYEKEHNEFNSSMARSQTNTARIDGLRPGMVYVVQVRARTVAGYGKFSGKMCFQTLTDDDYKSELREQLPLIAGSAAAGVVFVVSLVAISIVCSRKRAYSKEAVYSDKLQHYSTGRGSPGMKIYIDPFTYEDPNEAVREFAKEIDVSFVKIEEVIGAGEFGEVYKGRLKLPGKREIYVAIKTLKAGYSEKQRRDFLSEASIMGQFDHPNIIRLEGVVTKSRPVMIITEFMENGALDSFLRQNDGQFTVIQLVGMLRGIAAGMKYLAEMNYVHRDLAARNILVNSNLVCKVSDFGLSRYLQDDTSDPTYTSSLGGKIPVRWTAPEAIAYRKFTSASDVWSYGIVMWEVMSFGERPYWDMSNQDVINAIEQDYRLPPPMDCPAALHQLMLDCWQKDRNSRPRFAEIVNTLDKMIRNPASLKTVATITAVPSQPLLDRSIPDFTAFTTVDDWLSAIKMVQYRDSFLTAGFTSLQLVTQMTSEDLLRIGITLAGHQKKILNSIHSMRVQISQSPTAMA
FGFR3, sequence (P22607 whole entry, looked up): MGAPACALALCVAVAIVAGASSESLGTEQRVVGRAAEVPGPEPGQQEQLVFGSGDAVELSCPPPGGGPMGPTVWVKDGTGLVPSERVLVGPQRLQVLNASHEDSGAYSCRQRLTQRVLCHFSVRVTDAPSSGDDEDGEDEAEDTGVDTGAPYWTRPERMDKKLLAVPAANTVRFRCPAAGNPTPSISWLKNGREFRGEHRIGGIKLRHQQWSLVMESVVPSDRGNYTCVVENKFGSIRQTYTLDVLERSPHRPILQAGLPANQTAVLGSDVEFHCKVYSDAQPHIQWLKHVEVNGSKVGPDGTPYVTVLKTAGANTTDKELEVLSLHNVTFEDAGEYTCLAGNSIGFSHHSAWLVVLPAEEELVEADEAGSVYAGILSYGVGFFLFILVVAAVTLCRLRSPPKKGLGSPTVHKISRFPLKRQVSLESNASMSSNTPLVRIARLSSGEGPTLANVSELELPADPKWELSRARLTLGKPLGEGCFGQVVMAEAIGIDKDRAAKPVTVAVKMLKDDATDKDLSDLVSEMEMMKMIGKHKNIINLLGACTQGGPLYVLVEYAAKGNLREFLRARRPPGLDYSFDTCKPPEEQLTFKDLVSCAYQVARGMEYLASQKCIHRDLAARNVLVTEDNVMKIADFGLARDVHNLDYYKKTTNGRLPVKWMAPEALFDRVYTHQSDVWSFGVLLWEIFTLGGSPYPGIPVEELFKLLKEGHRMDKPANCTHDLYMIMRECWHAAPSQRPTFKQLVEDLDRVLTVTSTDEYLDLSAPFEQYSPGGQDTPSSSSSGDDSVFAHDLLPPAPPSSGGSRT
MERTK, sequence (Q12866 whole entry, looked up): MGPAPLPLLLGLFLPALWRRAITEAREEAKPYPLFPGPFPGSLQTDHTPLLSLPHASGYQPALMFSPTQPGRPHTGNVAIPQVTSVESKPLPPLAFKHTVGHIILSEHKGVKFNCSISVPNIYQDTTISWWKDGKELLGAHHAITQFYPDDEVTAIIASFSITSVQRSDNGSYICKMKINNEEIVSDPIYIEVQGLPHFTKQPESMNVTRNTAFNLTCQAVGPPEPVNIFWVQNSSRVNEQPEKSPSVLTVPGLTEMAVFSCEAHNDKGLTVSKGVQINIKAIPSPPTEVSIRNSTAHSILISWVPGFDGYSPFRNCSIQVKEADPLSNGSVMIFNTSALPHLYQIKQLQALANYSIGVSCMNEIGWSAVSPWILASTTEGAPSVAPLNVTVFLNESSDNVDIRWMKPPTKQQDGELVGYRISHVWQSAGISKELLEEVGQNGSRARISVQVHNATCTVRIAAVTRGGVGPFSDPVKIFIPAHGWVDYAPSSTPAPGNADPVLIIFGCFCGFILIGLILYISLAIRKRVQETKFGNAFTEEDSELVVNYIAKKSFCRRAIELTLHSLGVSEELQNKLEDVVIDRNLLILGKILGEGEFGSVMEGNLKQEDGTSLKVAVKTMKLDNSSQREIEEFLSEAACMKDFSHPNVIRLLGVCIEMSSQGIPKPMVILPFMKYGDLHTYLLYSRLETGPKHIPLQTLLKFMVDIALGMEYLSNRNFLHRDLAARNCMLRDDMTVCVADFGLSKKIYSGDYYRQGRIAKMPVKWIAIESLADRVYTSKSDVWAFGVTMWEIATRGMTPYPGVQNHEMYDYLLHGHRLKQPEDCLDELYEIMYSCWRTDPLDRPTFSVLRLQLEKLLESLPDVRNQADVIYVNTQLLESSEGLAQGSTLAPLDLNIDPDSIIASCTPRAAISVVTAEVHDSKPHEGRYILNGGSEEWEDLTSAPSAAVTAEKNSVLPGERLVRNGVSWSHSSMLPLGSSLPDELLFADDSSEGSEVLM
FGFR1, sequence (P11362 whole entry, looked up): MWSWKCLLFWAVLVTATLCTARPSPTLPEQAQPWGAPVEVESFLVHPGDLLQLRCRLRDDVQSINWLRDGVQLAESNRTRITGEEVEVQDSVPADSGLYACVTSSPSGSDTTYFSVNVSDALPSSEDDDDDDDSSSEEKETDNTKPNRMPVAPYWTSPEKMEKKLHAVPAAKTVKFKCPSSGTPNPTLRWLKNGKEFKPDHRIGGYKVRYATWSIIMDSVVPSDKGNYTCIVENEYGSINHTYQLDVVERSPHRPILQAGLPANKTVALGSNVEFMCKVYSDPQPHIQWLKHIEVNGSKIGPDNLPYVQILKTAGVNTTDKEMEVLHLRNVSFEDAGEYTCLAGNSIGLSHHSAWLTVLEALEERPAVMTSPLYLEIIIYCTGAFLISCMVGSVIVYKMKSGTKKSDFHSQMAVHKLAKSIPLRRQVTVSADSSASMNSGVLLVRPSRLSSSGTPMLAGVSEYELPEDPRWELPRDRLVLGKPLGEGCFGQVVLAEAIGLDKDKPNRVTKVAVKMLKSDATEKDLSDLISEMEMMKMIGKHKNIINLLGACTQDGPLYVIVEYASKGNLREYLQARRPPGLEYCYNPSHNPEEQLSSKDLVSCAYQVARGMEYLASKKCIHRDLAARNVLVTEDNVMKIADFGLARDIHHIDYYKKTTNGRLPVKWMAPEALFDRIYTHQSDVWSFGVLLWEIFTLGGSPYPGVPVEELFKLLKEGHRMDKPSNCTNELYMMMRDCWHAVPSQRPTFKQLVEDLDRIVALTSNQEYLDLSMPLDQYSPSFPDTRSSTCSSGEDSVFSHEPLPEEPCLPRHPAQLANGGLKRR
EPHB2, sequence (P29323 whole entry, looked up): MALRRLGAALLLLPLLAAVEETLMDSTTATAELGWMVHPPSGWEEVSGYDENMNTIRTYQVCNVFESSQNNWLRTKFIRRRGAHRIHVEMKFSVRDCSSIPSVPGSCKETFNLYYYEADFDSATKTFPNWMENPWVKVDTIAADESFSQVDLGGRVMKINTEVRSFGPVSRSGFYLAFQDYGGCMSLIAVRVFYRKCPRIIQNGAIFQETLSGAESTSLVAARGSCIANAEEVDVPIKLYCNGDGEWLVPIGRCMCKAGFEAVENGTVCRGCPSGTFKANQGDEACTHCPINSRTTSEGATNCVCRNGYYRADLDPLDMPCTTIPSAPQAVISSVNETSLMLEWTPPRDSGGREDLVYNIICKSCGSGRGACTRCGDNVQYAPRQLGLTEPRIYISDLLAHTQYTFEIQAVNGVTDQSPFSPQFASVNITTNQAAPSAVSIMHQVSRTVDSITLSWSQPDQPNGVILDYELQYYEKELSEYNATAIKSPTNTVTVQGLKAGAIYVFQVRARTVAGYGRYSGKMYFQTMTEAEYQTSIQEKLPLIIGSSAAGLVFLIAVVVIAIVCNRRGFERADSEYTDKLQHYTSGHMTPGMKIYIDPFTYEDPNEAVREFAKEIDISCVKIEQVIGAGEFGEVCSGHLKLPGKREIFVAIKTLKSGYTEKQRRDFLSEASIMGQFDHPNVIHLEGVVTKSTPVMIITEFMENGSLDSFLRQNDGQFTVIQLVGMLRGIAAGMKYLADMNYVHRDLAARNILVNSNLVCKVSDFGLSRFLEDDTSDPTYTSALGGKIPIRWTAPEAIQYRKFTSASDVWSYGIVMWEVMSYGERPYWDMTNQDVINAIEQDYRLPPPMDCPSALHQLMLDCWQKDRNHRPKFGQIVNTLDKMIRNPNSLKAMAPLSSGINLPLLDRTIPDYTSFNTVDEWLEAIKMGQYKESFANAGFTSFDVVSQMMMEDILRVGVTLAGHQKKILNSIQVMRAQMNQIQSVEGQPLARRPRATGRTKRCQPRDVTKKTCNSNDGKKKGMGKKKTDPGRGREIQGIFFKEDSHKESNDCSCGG

SH2 binding enrichment [1]	SH2 binding enrichment [2]	SH2 binding enrichment [3]	Sequence	phosphorylation enrichment [4]	phosphorylation enrichment [5]	phosphorylation enrichment [6]	phosphorylation enrichment [7]	phosphorylation enrichment [8]	phosphorylation enrichment [9]	phosphorylation enrichment [10]	phosphorylation enrichment [11]	phosphorylation enrichment [12]	phosphorylation enrichment [13]	phosphorylation enrichment [14]	phosphorylation enrichment [15]	phosphorylation enrichment [16]
0.743	0.814	4.17	AKKVFYVNETR [SHH_Y253_I255N]	0.526	0.594	0.307	0.737	0.338	0.448	0.576	0.338	0.42	0.319	0.494	0.363	0.459
0.488	0.732	0.775	ISHVAYRVLGK [TRRAP_Y892]	0.426	0.31	0.394	0.597	0.338	0.365	0.634	0.348	0.423	0.416	0.402	0.34	0.477
0.864	0.612	0.829	WGTPEYDSVVA [MAP1A_Y1883_A1881P]	0.895	0.495	0.566	1.15	2.73	0.493	1.42	0.76	0.46	0.59	0.593	0.359	0.723
0.461	0.721	0.728	GASWRYGSGVS [NEU1_Y242]	0.566	0.512	0.479	0.782	0.428	0.432	0.637	0.505	0.531	0.42	0.617	0.413	0.506
0.502	0.781	0.729	ILLAGYLVMVI [SLC28A3_Y113]	1.06	0.681	0.572	1.38	0.613	0.652	1.35	0.525	0.58	0.442	0.783	0.498	0.748
0.563	0.859	0.938	TDEFEYDELIV [TGM1_Y136_YF]	1.34	1.12	1.59	2.77	0.61	2.23	2.29	1.56	1.69	0.716	2.03	0.622	0.91
0.503	0.935	0.823	PNRILYGDFQQ [MYH7_Y715_R719Q]	0.861	0.504	4.31	0.798	0.375	0.516	0.601	1.42	0.422	3.04	0.475	0.408	0.549
1.06	2.59	0.998	CTTIHYMYMCN [TP53_Y234_N235M]	0.973	0.62	0.362	1.14	0.556	0.517	1.06	0.45	0.485	0.332	0.772	0.34	0.681
1.98	0.459	0.778	LVKDPYVMFPQ [PLEKHG2_Y489_P484L]	1.79	0.91	4.32	1.93	1.12	0.608	1.45	2.48	7.45	3.86	3.42	0.997	0.943
0.541	0.673	0.869	AIMSFYATLID [RYR1_Y2426_A2428T]	1.83	1.05	0.508	1.51	0.791	0.836	1.31	0.585	0.601	0.486	1.09	0.59	1.07
4.99	0.534	0.851	GELQGYDIMEP [MSH2_Y863_S860L]	1.13	0.554	0.412	1.13	0.471	0.522	1.23	0.508	0.445	0.436	0.666	0.419	0.658
0.621	0.661	0.776	GPRSLYNGLVA [UCP2_Y79]	0.502	0.385	0.427	0.543	0.386	0.36	0.488	1.45	0.396	0.509	0.486	0.381	0.555
0.772	0.863	0.978	FGTAQYCCRMG [LRRK2_Y2023_I2020T_YF]	0.515	0.598	0.463	0.693	0.499	8.12	0.663	0.518	0.56	0.403	0.517	1.79	1.28
2.11	6.08	1.48	TTPGPYRSIYF [MPG_Y71]	0.433	0.268	0.641	1	0.54	0.278	0.595	0.662	0.44	1.27	0.515	0.422	0.547

Further lines, the sequence ahead of its results:

Sequence	SH2 binding enrichment [1]	SH2 binding enrichment [2]	SH2 binding enrichment [3]	phosphorylation enrichment [4]	phosphorylation enrichment [5]	phosphorylation enrichment [6]	phosphorylation enrichment [7]	phosphorylation enrichment [8]	phosphorylation enrichment [9]	phosphorylation enrichment [10]	phosphorylation enrichment [11]	phosphorylation enrichment [12]	phosphorylation enrichment [13]	phosphorylation enrichment [14]	phosphorylation enrichment [15]	phosphorylation enrichment [16]
IVAREYYSDAD [CAMK2A_Y106_E109D]	3.1	0.833	0.869	0.959	0.775	0.473	1.13	0.589	0.647	1.04	0.525	0.657	0.559	0.633	0.41	0.828
YPQARYHWLVL [APTX_Y214_K211Q]	0.98	1.43	1.27	0.98	0.72	0.449	1.14	0.612	0.586	0.937	0.531	1.96	0.411	1.48	1.05	0.744
FTRNFYVRAVL [CYBA_Y88_YF]	0.448	0.658	0.581	1.54	0.831	0.529	1.58	0.689	0.713	1.36	0.565	0.635	0.554	1.11	0.503	1.57
RSRSPYSPVLR [CDK13_Y399]	0.66	1.47	1.2	0.563	0.476	0.551	0.854	0.423	0.477	0.917	0.628	1.06	0.701	0.584	0.674	0.763
MHRRQYELLGG [GNAS_Y391_L388R]	2.1	0.349	0.601	0.48	0.28	0.371	0.715	0.307	0.426	0.577	0.409	0.5	0.336	0.425	0.391	0.416
TGQEEYSAMRD [KRAS_Y64_A59T]	0.639	0.704	0.838	0.821	0.789	0.519	1	0.462	0.536	1.08	0.563	0.538	0.525	0.63	0.475	0.642
KMATAYIRRMS [BCO1_Y264]	0.389	0.497	0.593	0.58	0.359	0.425	0.572	0.362	0.495	0.68	0.425	0.461	0.514	0.431	0.468	0.544
PDGVEYLKNNP [GRIN3A_Y831_D835N]	0.348	0.849	0.982	1.31	0.527	0.543	1.05	0.499	0.452	1.21	0.664	0.503	0.539	0.769	0.546	0.748
ESLSSYWESAK [APOC2_Y47]	0.713	0.753	0.889	0.888	0.527	0.414	1.01	0.354	0.576	0.84	0.464	0.63	0.392	0.692	0.381	0.584
DERQPYAHMNG [IGF1R_Y1346]	1.85	0.767	0.729	0.533	0.359	0.438	0.599	0.456	0.362	0.588	0.427	0.45	0.376	0.459	0.343	0.455
RELSWYRGRRP [HESX1_Y106]	0.318	0.422	0.734	0.895	0.484	0.781	0.794	0.693	0.683	1.02	0.809	0.53	0.727	0.563	0.833	0.787
IYLADYRIMEG [ALOX12B_Y318]	0.719	1.1	0.982	1.03	1.26	0.738	1.1	0.48	1.07	1.14	0.812	2.63	1.16	2.46	3.75	0.978
EPSVPYRGTVF [GLI3_Y104]	0.491	0.711	0.803	0.783	0.447	0.545	0.698	0.424	0.567	0.566	0.441	0.447	0.46	0.478	0.487	0.534
VLSIDYFFPPQ [AR_Y552_P549S_YF]	0.852	0.998	1.46	1.58	1.08	0.497	1.12	0.516	0.843	5.83	0.572	12.7	0.827	10.5	0.719	0.784
KPMDTYYDSTR [DYNC2H1_Y2230]	0.898	0.66	0.903	0.545	0.632	0.543	0.774	0.447	0.675	0.874	1.13	0.998	0.7	0.76	0.498	0.678
GYKVRYATWSI [FGFR1_Y210]	1.28	2.01	1.39	1.08	0.573	0.54	1.18	0.456	0.425	1.06	0.593	0.519	0.582	0.669	0.657	0.969
LPPREYVVVPS [CAPN1_Y494_G492R]	1.17	1.03	0.918	1.04	3.78	1.41	2.17	1.73	4.02	2.29	1.73	2.83	0.48	2.46	0.631	0.726
ETAENYLGFTA [HSPA9_Y181_H184Y_YF]	0.45	0.654	0.703	0.855	0.743	0.505	1.1	0.486	0.633	1.17	0.53	0.578	0.569	0.807	0.514	0.879
IMAYFYMCDRA [CASD1_Y382]	0.87	1.02	1.14	1.46	0.803	0.421	1.45	0.614	0.641	1.11	0.401	1.09	0.487	1.23	0.494	1
